The supplement of paper PMC12667976
± gives the standard error.

B1: library; numbered along this chain (parent)
chain: MATDAALRRLLRLHRTEIAVAVDSAFPLLHALADHDVVPEDKFQETLHLKEKEGCPQAFHALLSWLLTQDSTAILDFWRVLFKDYNLERYGRLQPILDSFPKDVDLSQPRKGRKPPAVPKALVPPPRLPTKRKASEEARAAAPAALTPRGTASPGSQLKAKPPKKPESSAEQQRLPLGNGIQTMSASVQRAVAMSSGDVPGARGAVEGILIQQVFESGGSKKCIQVGGEFYTPSKFEDSGSGKNKARSSSGPKPLVRAKGAQGAAPGGGEARLGQQGSVPAPLALPSDPQLHQKNEDECAVCRDGGELICCDGCPRAFHLACLSPPLREIPSGTWRCSSCLQATVQEVQPRAEEPRPQEPPVETPLPPGLRSAGEEVRGPPGEPLAGMDTTLVYKHLPAPPSAAPLPGLDSSALHPLLCVGPEGQQNLAPGARCGVCGDGTDVLRCTHCAAAFHWRCHFPAGTSRPGTGLRCRSCSGDVTPAPVEGVLAPSPARLAPGPAKDDTASHEPALHRDDLESLLSEHTFDGILQWAIQSMARPAAPFPS

Variants of: B1
Experiment: AIRE transcriptional activation functional score (insulin promoter-GFP; nonsense median 0, synonymous median 1) (normalised score); higher = higher AIRE activity (more reporter activation)
Conditions: with insulin promoter-GFP reporter in HEK293
How it was run: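 Flp-In T-REx HEK293 landing-pad cells carrying an insulin core promoter-GFP reporter received codon-optimized AIRE NNN-codon libraries (three regions) through Bxb1 recombinase. Sorting of mCherry+, BFP− integrants took place at day 7, followed by 7 days of expansion and tile-sequencing of top 10% GFP and unselected integrant populations. A functional score was derived from select versus non-select variant enrichment with wild type subtracted. Values from variants reaching 10 counts per million in non-select were set to nonsense median 0 and synonymous median 1 and averaged over biological replicates.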

AIRE transcriptional activation functional score of substitutions, site by site:
T441: W 1.57 ± 0.035; D 0.0827 ± 0.34; R 0.696 ± 0.32; C 1.25 ± 0.14; L 1.13 ± 0.093; Y 1.12 ± 0.098; G 0.478 ± 0.33; M 1.24 ± 0.095; V 0.851 ± 0.17; H 1.1 ± 0.27; Q 1.35 ± 0.054; I 1.08 ± 0.17; A 1.03 ± 0.36; F 0.823 ± 0.34; N 0.751 ± 0.16; K 1.31 ± 0.051; E 0.676 ± 0.27; S 1.02 ± 0.28; P 1.13 ± 0.11
G438: S 1.24 ± 0.22; N 0.938 ± 0.11; W 1.26 ± 0.047; F 0.712 ± 0.11; M 1.31 ± 0.048; P 0.303 ± 0.33; E 0.922 ± 0.077; I 1.08 ± 0.32; D 0.196 ± 0.064; C 1.25 ± 0.083; K 1.12 ± 0.044; Q 1.23 ± 0.14; T 0.646 ± 0.18; A 1.21 ± 0.32; V 1.1 ± 0.27; L 0.0897 ± 0.28; R 1.1 ± 0.31
L444: T 0.477 ± 0.063; D 1.55 ± 0.075; P 0.0281 ± 0.11; A 0.718 ± 0.21; H 1.18 ± 0.073; R 1.17 ± 0.17; C 1.96 ± 0.078; Q 0.642 ± 0.092; W 0.452 ± 0.12; K 0.847 ± 0.12; V 1.13 ± 0.18; I 1.08 ± 0.18; G 1.27 ± 0.24; N 0.882 ± 0.43; F 0.489 ± 0.068; E 0.903 ± 0.13; S 1.09 ± 0.34; M -0.874 ± 0.42; Y 0.814 ± 0.26
R433: Y 0.349 ± 0.15; W 1.4 ± 0.071; V 0.599 ± 0.19
A450: Y 0.311 ± 0.12; E 1.24 ± 0.089; G 0.382 ± 0.16; I 1.2 ± 0.2; D 1.48 ± 0.055; S 0.883 ± 0.2; Q 1.13 ± 0.17; R 1.4 ± 0.074; F 1.24 ± 0.54; L 1.22 ± 0.29; H 1.43 ± 0.17; N 1.35 ± 0.14; T 0.632 ± 0.29; P 0.565 ± 0.12; V 1.19 ± 0.3; C 0.795 ± 0.2; K -0.531 ± 0.21
V443: I 0.968 ± 0.28; Q 0.368 ± 0.051; Y 0.882 ± 0.17; T 0.921 ± 0.095; L 0.596 ± 0.25; C 1.15 ± 0.15; F 0.581 ± 0.22; P 1.15 ± 0.18; A 0.969 ± 0.35; R 0.0498 ± 0.11; M 1.29 ± 0.095; N 0.847 ± 0.14; K 0.0676 ± 0.097; H 1.16 ± 0.069; S 0.937 ± 0.33; W 0.235 ± 0.036; D 0.0282 ± 0.049; E 1.12 ± 0.15; G 1.13 ± 0.13
C434: F 0.223 ± 0.047; A 0.14 ± 0.15; Y 0.0941 ± 0.11; E 0.289 ± 0.11; H 0.179 ± 0.038; G 0.163 ± 0.16; W -0.0557 ± 0.096; T 0.243 ± 0.14; R 0.0925 ± 0.12; D 0.5 ± 0.11; L 0.207 ± 0.089; I 0.0869 ± 0.1; S 0.275 ± 0.14; K -0.158 ± 0.1; P 0.202 ± 0.26; Q 0.225 ± 0.23; V 0.211 ± 0.13; N 0.201 ± 0.12; M 0.34 ± 0.084
T447: Y 0.458 ± 0.2; E 0.425 ± 0.056; A 1.02 ± 0.4; G 1.03 ± 0.11; I 1.4 ± 0.15; W 1.32 ± 0.029; S 1.29 ± 0.18; D 0.924 ± 0.24; L 1.2 ± 0.25; M 1.49 ± 0.076; F 0.707 ± 0.19; R 0.679 ± 0.35; N 1.26 ± 0.23; Q 0.797 ± 0.062; C 0.201 ± 0.3; V 1.18 ± 0.26
A451: R 1.19 ± 0.44; W 0.516 ± 0.2; N 0.582 ± 0.09; T 0.528 ± 0.23; G 0.686 ± 0.21; H 0.282 ± 0.15; P 0.142 ± 0.14; I 0.663 ± 0.18; Q -0.927 ± 0.22; F -0.0649 ± 0.075; L 0.76 ± 0.37; Y 0.593 ± 0.28; D 0.631 ± 0.11; K 0.893 ± 0.1; S 0.496 ± 0.4; V 0.438 ± 0.078; E 1.02 ± 0.12
V436: P 0.39 ± 0.15; L 0.995 ± 0.26; M 0.555 ± 0.13; R 0.525 ± 0.33; Q 0.854 ± 0.3; D 0.874 ± 0.21; A 0.0856 ± 0.18; F 1.11 ± 0.13; T 0.824 ± 0.31; K 1.21 ± 0.1; H 0.883 ± 0.41; S 0.217 ± 0.2; C 1.33 ± 0.37; N 1.19 ± 0.082; Y 1.28 ± 0.29; G 0.916 ± 0.37; I 1.35 ± 0.16; E 0.492 ± 0.29
C446: F 0.403 ± 0.22; W -0.0678 ± 0.057; T -0.0482 ± 0.24
